Reference: patent publication US20170101455A1

Tests used:
Insulin receptor [1] = test: SPR (BIACORE 3000), insulin receptor immobilised on CM5 chip; Test 2
Insulin receptor [2] = test: SPR (BIACORE 3000), insulin receptor immobilised on CM5 chip; Test 3
Insulin receptor [3] = test: SPR (BIACORE 3000), insulin receptor immobilised on CM5 chip; Test 4
Insulin receptor [4] = test: SPR (BIACORE 3000), insulin receptor immobilised on CM5 chip; Test 5

Kd (Insulin receptor [1]): 0.781 µM
ka relative to native human insulin (Insulin receptor [1]): 3.9%
kd relative to native human insulin (Insulin receptor [1]): 77.2%
koff (Insulin receptor [1]): 0.0078 s⁻¹
kon (Insulin receptor [1]): 9000 M⁻¹ s⁻¹
receptor binding affinity (KD) relative to native human insulin (Insulin receptor [1]): 5.9%
Kd (Insulin receptor [2]): 1.24 µM
ka relative to native human insulin (Insulin receptor [2]): 2.7%
kd relative to native human insulin (Insulin receptor [2]): 54.5%
koff (Insulin receptor [2]): 0.00585 s⁻¹
kon (Insulin receptor [2]): 5000 M⁻¹ s⁻¹
receptor binding affinity (KD) relative to native human insulin (Insulin receptor [2]): 5.1%
Kd (Insulin receptor [3]): 1.14 µM
ka relative to native human insulin (Insulin receptor [3]): 2.1%
kd relative to native human insulin (Insulin receptor [3]): 56.1%
koff (Insulin receptor [3]): 0.0069 s⁻¹
receptor binding affinity (KD) relative to native human insulin (Insulin receptor [3]): 3.7%
Kd (Insulin receptor [4]): 0.862 µM
ka relative to native human insulin (Insulin receptor [4]): 4.3%
kd relative to native human insulin (Insulin receptor [4]): 76.5%
koff (Insulin receptor [4]): 0.0074 s⁻¹
kon (Insulin receptor [4]): 9000 M⁻¹ s⁻¹
receptor binding affinity (KD) relative to native human insulin (Insulin receptor [4]): 5.9%
Substance: Native insulin-immunoglobulin Fc conjugate
